Where two headings read alike, the source gives them in different places.
Key:
Experiment in all cases: Biacore SPR
BMP6 [1] = molecular target: T1, BMP6 (UniProt P22004 382-513, limits assumed)
T1 sequence (looked up): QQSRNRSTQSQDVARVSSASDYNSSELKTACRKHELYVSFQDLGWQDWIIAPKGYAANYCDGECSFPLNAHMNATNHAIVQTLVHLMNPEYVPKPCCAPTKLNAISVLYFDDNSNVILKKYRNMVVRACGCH

BMP10 [2] = molecular target: T2, BMP10 (UniProt O95393 317-424)
T2 sequence (looked up): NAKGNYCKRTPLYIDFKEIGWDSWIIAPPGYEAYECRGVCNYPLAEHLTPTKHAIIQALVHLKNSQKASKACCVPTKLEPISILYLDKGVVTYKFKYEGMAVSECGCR
Procedure: (§1) Ligands were injected and allowed to flow over the captured receptor protein.

BMP5 = molecular target: T3, BMP5 (UniProt P22003 317-454, limits assumed)
T3 sequence (looked up): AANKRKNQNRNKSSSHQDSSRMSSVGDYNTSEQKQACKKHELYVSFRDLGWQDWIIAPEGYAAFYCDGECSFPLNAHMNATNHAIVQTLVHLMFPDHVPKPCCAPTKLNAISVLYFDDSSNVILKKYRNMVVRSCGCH
Procedure: as §1

BMP15 = molecular target: T4, BMP15 (UniProt O95972 268-392)
T4 construct: also called GDF9b
T4 sequence (looked up): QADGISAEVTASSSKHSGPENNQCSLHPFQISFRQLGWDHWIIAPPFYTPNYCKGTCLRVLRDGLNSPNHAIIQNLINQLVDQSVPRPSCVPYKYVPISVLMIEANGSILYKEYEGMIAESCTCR
Procedure: as §1

BMP2 = BMP2 (UniProt P12643 283-396)
Chain of BMP2 (P12643 283-396 limits assumed): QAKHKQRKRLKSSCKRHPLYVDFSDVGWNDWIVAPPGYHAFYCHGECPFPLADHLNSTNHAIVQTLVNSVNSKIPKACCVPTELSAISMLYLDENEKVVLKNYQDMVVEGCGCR
Procedure: as §1

BMP6 [3] = molecular target: T1, BMP6; remark: listed apart in the source
Procedure: as §1

BMP9 [4] = molecular target: T5, BMP9 (UniProt Q9UK05 320-429)
T5 construct: also called GDF2
T5 sequence (looked up): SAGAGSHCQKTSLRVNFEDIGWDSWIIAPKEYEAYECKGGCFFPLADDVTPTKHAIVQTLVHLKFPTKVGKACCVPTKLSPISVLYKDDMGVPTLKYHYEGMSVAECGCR
Procedure: as §1

BMP7 = molecular target: T6, BMP7 (UniProt P18075 293-431)
T6 sequence (looked up): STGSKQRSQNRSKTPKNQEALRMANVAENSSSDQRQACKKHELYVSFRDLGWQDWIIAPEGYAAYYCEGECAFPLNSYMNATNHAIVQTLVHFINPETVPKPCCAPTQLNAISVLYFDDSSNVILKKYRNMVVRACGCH
Procedure: as §1

BMP4 = molecular target: T7, BMP4 (UniProt P12644 293-408)
T7 sequence (looked up): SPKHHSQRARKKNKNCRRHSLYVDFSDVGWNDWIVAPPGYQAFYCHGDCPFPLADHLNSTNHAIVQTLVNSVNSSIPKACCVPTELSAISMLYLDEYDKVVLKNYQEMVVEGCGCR
Procedure: as §1

GDF6 = molecular target: T8, GDF6 (UniProt Q6KF10 336-455, limits assumed)
T8 construct: also called BMP13
T8 sequence (looked up): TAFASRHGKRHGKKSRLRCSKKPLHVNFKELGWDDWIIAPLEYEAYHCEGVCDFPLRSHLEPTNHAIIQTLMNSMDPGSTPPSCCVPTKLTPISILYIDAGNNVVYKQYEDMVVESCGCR
Procedure: as §1

TGFβ1 = molecular target: T9, TGFβ1 (human, UniProt P01137 279-390)
T9 construct: Human (PeproTech) is stated for the A549 reporter assay; also called TGF-beta1
T9 sequence (P01137 279-390 limits assumed): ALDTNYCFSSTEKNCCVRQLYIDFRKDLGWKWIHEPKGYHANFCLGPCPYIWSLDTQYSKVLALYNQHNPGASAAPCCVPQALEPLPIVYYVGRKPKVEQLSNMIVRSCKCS
Procedure: (§2) The heteromeric or homomeric protein complexes were independently captured onto the system using an anti-Fc antibody. Ligands were injected and allowed to flow over the captured receptor protein.

TGFβ3 = molecular target: T10, TGFβ3 (human, UniProt P10600 301-412)
T10 construct: Human (PeproTech) is stated for the A549 reporter assay; also called TGF-beta3
T10 sequence (looked up): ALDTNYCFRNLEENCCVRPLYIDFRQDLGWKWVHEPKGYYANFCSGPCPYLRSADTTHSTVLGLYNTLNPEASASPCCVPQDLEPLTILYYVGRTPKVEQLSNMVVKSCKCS
Procedure: as §2

TGFβ2 = molecular target: T11, TGFβ2 (human, UniProt P61812 303-414)
T11 construct: Human (PeproTech) is stated for the A549 reporter assay; also called TGF-beta2
T11 sequence (looked up): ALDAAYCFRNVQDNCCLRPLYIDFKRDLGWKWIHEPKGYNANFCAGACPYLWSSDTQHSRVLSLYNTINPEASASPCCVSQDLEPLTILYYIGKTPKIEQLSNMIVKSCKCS
Procedure: as §2

BMP10 [5] = molecular target: T2, BMP10; remark: listed apart in the source
Procedure: as §1

activin B = molecular target: T12, activin B (UniProt P09529 293-407)
T12 sequence (looked up): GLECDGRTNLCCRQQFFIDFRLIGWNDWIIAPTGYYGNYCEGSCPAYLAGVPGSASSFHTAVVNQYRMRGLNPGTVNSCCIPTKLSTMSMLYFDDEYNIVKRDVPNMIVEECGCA
Procedure: as §1

GDF8 = molecular target: T13, GDF8 (UniProt O14793 267-375)
T13 construct: also called myostatin
T13 sequence (looked up): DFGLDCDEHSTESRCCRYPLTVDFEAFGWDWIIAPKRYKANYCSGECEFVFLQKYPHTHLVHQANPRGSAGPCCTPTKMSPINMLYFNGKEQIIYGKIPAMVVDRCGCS
Procedure: as §1

GDF11 = molecular target: T14, GDF11 (UniProt O95390 299-407)
T14 construct: also called BMP11
T14 sequence (looked up): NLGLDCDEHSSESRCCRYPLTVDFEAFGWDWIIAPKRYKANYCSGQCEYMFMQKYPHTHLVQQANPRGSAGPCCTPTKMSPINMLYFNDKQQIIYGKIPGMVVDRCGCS
Procedure: as §1

BMP6 [6] = molecular target: T1, BMP6; remark: listed apart in the source
Procedure: as §1

BMP9 [7] = molecular target: T5, BMP9; remark: listed apart in the source
Procedure: as §1

GDF3 = molecular target: T15, GDF3 (UniProt Q9NR23 251-364)
T15 sequence (looked up): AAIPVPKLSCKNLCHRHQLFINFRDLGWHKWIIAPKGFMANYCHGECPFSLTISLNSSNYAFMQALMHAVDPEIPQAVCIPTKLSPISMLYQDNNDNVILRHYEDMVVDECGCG
Procedure: as §1

B1: BMPRII-Fc:ALK3-Fc heterodimer (Fc fusion)
chain 1: SQNQERLCAFKDPYQQDLGIGESRISHENGTILCSKGSTCYGLWEKSKGDINLVKQGCWSHIGDPQECHYEECVVTTTPPSIQNGTYRFCCCSTDLCNVNFTENFPPPDTTPLSPPHSFNRDETGGGTHTCPPCPAPELLGGPSVFLFPPKPKDTLMISRTPEVTCVVVDVSHEDPEVKFNWYVDGVEVHNAKTKPREEQYNSTYRVVSVLTVLHQDWLNGKEYKCKVSNKALPAPIEKTISKAKGQPREPQVYTLPPSRKEMTKNQVSLTCLVKGFYPSDIAVEWESNGQPENNYKTTPPVLKSDGSFFLYSKLTVDKSRWQQGNVFSCSVMHEALHNHYTQKSLSLSPGK
chain 2: GAQNLDSMLHGTGMKSDSDQKKSENGVTLAPEDTLPFLKCYCSGHCPDDAINNTCITNGHCFAIIEEDDQGETTLASGCMKYEGSDFQCKDSPKAQLRRTIECCRTNLCNQYLQPTLPPVVIGPFFDGSIRTGGGTHTCPPCPAPELLGGPSVFLFPPKPKDTLMISRTPEVTCVVVDVSHEDPEVKFNWYVDGVEVHNAKTKPREEQYNSTYRVVSVLTVLHQDWLNGKEYKCKVSNKALPAPIEKTISKAKGQPREPQVYTLPPSREEMTKNQVSLTCLVKGFYPSDIAVEWESNGQPENNYDTTPPVLDSDGSFFLYSDLTVDKSRWQQGNVFSCSVMHEALHNHYTQKSLSLSPG
notes: C-terminal Lys optional; also called BMPRII-Fc:ALK3 heterodimer
BMP6 [1]
  off-rate ratio against ALK3-Fc homodimer: ~10 fold
BMP10 [2]
  Kd: 2.4 nM
  koff: 0.0016 s⁻¹
  kon: 680000 M⁻¹ s⁻¹
BMP5
  Kd: 3.2 nM
  koff: 0.0014 s⁻¹
  kon: 430000 M⁻¹ s⁻¹
BMP15
  Kd: 6 nM
  koff: 0.0055 s⁻¹
  kon: 910000 M⁻¹ s⁻¹
BMP2
  Kd: 0.051 nM
  koff: 0.00015 s⁻¹
  kon: 2.9e+06 M⁻¹ s⁻¹
BMP6 [3]
  Kd: 1.6 nM
  koff: 0.00059 s⁻¹
  kon: 360000 M⁻¹ s⁻¹
BMP9 [4]
  binding result: no binding
BMP7
  Kd: 1 nM
  koff: 0.012 s⁻¹
  kon: 1.2e+07 M⁻¹ s⁻¹
BMP4
  Kd: 0.1 nM
  koff: 9.1e-05 s⁻¹
  kon: 910000 M⁻¹ s⁻¹
GDF6
  Kd: 1.4 nM
  koff: 0.0019 s⁻¹
  kon: 1.4e+06 M⁻¹ s⁻¹

B2: ALK5-Fc homodimer (Fc fusion, UniProt P36897 34-126, looked up, not shown: a dimerising Fc or GST)
chain: LQCFCHLCTKDNFTCVTDGLCFVSVTETTDKVIHNSMCIAEIDLIPRDRPFVCAPSSKTGSVTTTYCCNQDHCNKIELPTTVKSSPGLGPVEL
notes: extracellular domain
TGFβ1
  binding result: no binding
TGFβ3
  binding result: no binding
TGFβ2
  binding result: no binding
BMP10 [5]
  binding result: no binding
Activin B
  binding result: no binding
GDF8
  binding result: no binding
GDF11
  binding result: no binding
BMP6 [6]
  binding result: no binding
BMP9 [7]
  binding result: no binding
GDF3
  binding result: no binding
